According to the supplement of paper PMC7877785:
± gives the uncertainty stated by the source.

Experiment: self-splicing fitness, log relative to wild type (ln ratio); higher = more splicing; Tetrahymena group I intron in knt gene, E. coli kanamycin selection, DiMSum; sequences stand for … in CUCUCU…GGAGGGAAAAGUUAUCAGGCAUGCACCUGGUAGCUAGUCUUUAAACCAAUAGAUUGCAUCGGUUUAAAAGGCAAGACCGUCAAAUUGCGGGAAAGGGGUCAACAGCCGUUCAGUACCAAGUCUCAGGGGAAACUUUGAGAUGGCCUUGCAAAGGGUAUGGUAAUAAGCUGACGGACAUGGUCCUAACCACGCAGCCAAGUCCUAAGUCAACAGAUCUUCUGUUGAUAUGGAUGCAGUUCACAGACUAAAUGUCGGUCGGGGAAGAUGUAUUCUUCUCAUAAGAUAUAGUCGGACCUCUCCUUAAUGGGAGCUAGCGGAUGAAGUGAUGCAACACUGGAGCCGCUGGGAACUAAUUUGUAUGCGAAAGUAUAUUGAUUAGUUUUGGAGUACUCGUGGUCG
How it was run: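 Library with all eight P1ex-region intron nucleotides randomised, intron inside the knt kanamycin-resistance gene on pET-22b(+), in E. coli BL21(DE3). Cells grew overnight at 37°C or 30°C on LB agar with or without 25 μg/mL kanamycin (plus 100 μg/mL carbenicillin, 50 μM IPTG, 0.2% rhamnose), in six replicate transformations. Pooled colonies were amplicon-sequenced on Illumina HiSeq 2500. DiMSum fitness is the error-weighted combination of wild-type-normalised replicate fold changes, kanamycin versus none.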

Row | Sequence | self-splicing fitness (ln) (30 °C) | self-splicing fitness (ln) (37 °C)
1 | AGUAAGCAAUAUUACGAGUC | -2.96 ± 0.23 | -1.45 ± 0.17
2 | AGUAAGCAAUAUUACGAUGG | -3.99 ± 0.23 | -1.56 ± 0.26
3 | AGUAAGCAAUAUUACGGAUG | -3.1 ± 0.25 | -2.2 ± 0.26
4 | AGUAAGCAAUAUUACGGCAC | -2.04 ± 0.27 | -0.545 ± 0.2
5 | AGUAAGCAAUAUUACGGCUU | -0.592 ± 0.086 | -0.0743 ± 0.11
6 | AGUAAGCAAUAUUACGGGAA | -2.13 ± 0.16 | -2.12 ± 0.19
7 | AGUAAGCAAUAUUACGGGAG | -3.4 ± 0.2 | -2.43 ± 0.2
8 | AGUAAGCAAUAUUACGGGUU | -2.54 ± 0.18 | -2.68 ± 0.2
9 | AGUAAGCAAUAUUACGGUCA | -0.817 ± 0.074 | 0.0737 ± 0.081
10 | AGUAAGCAAUAUUACGGUCC | -0.766 ± 0.061 | -0.91 ± 0.08
11 | AGUAAGCAAUAUUACGGUCU | -0.432 ± 0.093 | -0.488 ± 0.11
12 | AGUAAGCAAUAUUACGUAUG | -2.94 ± 0.29 | -2.15 ± 0.24
13 | AGUAAGCAAUAUUACGUUUA | -2.84 ± 0.22 | -1.56 ± 0.18
14 | AGUAAGCAAUAUUACGUUUG | -4.38 ± 0.29 | -2.13 ± 0.21
15 | AGUCAGCAAUAUUACGACAA | -0.509 ± 0.098 | 0.177 ± 0.13
16 | AGUCAGCAAUAUUACGACAC | -0.0897 ± 0.065 | -0.358 ± 0.084
17 | AGUCAGCAAUAUUACGCCAU | -2.86 ± 0.25 | -1.1 ± 0.21
18 | AGUCAGCAAUAUUACGCCUU | -0.221 ± 0.11 | 0.301 ± 0.13
19 | AGUCAGCAAUAUUACGCGGA | -3.11 ± 0.26 | -1.79 ± 0.18
20 | AGUCAGCAAUAUUACGCUUU | -0.879 ± 0.063 | 0.0148 ± 0.087
21 | AGUCAGCAAUAUUACGGCCU | 0.247 ± 0.1 | 0.507 ± 0.13
22 | AGUCAGCAAUAUUACGGUCU | -0.851 ± 0.06 | -0.146 ± 0.068
23 | AGUCAGCAAUAUUACGUAGA | -2.08 ± 0.095 | -0.757 ± 0.098
24 | AGUCAGCAAUAUUACGUAGG | -3.1 ± 0.12 | -1.64 ± 0.14
25 | AGUCAGCAAUAUUACGUAGU | -1.21 ± 0.077 | -0.268 ± 0.12

Row | Sequence | self-splicing fitness (ln) (30 °C) | self-splicing fitness (ln) (37 °C)
26 | AGUCAGCAAUAUUACGUAUA | -2.69 ± 0.12 | -1.33 ± 0.1
27 | AGUCAGCAAUAUUACGUCUG | -2.2 ± 0.13 | -0.783 ± 0.12
28 | AGUCAGCAAUAUUACGUUGC |  | -2.83 ± 0.3
29 | AGUGAGCAAUAUUACGAAAC | -2.97 ± 0.38 | -1.2 ± 0.33
30 | AGUGAGCAAUAUUACGACAA | -2.34 ± 0.23 | -0.743 ± 0.18
31 | AGUGAGCAAUAUUACGAGUA | -3.6 ± 0.44 | -2.18 ± 0.32
32 | AGUGAGCAAUAUUACGCCGU | -2.39 ± 0.38 | 
33 | AGUGAGCAAUAUUACGCCUC | -1.98 ± 0.24 | 
34 | AGUGAGCAAUAUUACGCGCG | -1.28 ± 0.16 | -1.83 ± 0.22
35 | AGUGAGCAAUAUUACGCGUC | -1.51 ± 0.3 | -2.62 ± 0.45
36 | AGUGAGCAAUAUUACGCGUG | -4.06 ± 0.28 | -2.34 ± 0.15
37 | AGUGAGCAAUAUUACGCUUA |  | -1.98 ± 0.38
38 | AGUGAGCAAUAUUACGGAGU | -2.86 ± 0.3 | -3.09 ± 0.35
39 | AGUGAGCAAUAUUACGGCAU | -1.36 ± 0.12 | -0.254 ± 0.13
40 | AGUGAGCAAUAUUACGGCGA | -1.18 ± 0.14 | -2 ± 0.21
41 | AGUGAGCAAUAUUACGGGGC |  | -2.75 ± 0.29
42 | AGUGAGCAAUAUUACGGUAG | -3.02 ± 0.4 | 
43 | AGUGAGCAAUAUUACGGUUG | -3.38 ± 0.27 | -1.92 ± 0.24
44 | AGUGAGCAAUAUUACGUCGA | -3.92 ± 0.24 | -2 ± 0.16
45 | AGUGAGCAAUAUUACGUUAC | -3.72 ± 0.47 | 
46 | AGUGAGCAAUAUUACGUUGG | -4.42 ± 0.36 | -1.98 ± 0.26
47 | AGUGAGCAAUAUUACGUUUC | -3.41 ± 0.23 | -3.56 ± 0.32
48 | AGUUAGCAAUAUUACGAAGG | -4.03 ± 0.22 | -3.4 ± 0.28
49 | AGUUAGCAAUAUUACGACUA | -0.154 ± 0.18 | 0.0802 ± 0.17
50 | AGUUAGCAAUAUUACGAUCC | 0.593 ± 0.14 | -0.367 ± 0.15

Row | Sequence | self-splicing fitness (ln) (30 °C) | self-splicing fitness (ln) (37 °C)
51 | AGUUAGCAAUAUUACGCACA | 0.242 ± 0.2 | 0.395 ± 0.28
52 | AGUUAGCAAUAUUACGCAUU | -3.25 ± 0.25 | -0.806 ± 0.17
53 | AGUUAGCAAUAUUACGCGAA | -2.29 ± 0.15 | -1.1 ± 0.13
54 | AGUUAGCAAUAUUACGCUAU | -2.29 ± 0.17 | -1.21 ± 0.14
55 | AGUUAGCAAUAUUACGGGAA | -2.22 ± 0.19 | -1.05 ± 0.16
56 | AGUUAGCAAUAUUACGGGUC | -1.99 ± 0.33 | 
57 | AGUUAGCAAUAUUACGGUCA | -1.08 ± 0.077 | -0.46 ± 0.085
58 | AGUUAGCAAUAUUACGUAGG | -4.63 ± 0.32 | 
59 | AGUUAGCAAUAUUACGUAUC | -3.63 ± 0.2 | -2.25 ± 0.18
60 | AGUUAGCAAUAUUACGUCGA | -1.37 ± 0.12 | -1.02 ± 0.13
61 | AGUUAGCAAUAUUACGUCGC | -2.96 ± 0.39 | -0.924 ± 0.18
62 | AGUUAGCAAUAUUACGUGGU | -3.34 ± 0.15 | -3.35 ± 0.23
63 | AGUUAGCAAUAUUACGUUCG | -1.26 ± 0.082 | -0.903 ± 0.1
64 | AGUUAGCAAUAUUACGUUUC | -3.37 ± 0.34 | 
65 | AGUUAGCAAUAUUACGUUUG | -3.13 ± 0.24 | -1.8 ± 0.29
66 | AGUUAGCAAUAUUACGUUUU | -3.11 ± 0.18 | -1.41 ± 0.15
67 | AUAAAGCAAUAUUACGACAA | -0.556 ± 0.086 | 0.621 ± 0.12
68 | AUAAAGCAAUAUUACGACGU | 0.742 ± 0.063 | 0.786 ± 0.074
69 | AUAAAGCAAUAUUACGACUG | -1.14 ± 0.085 | -0.454 ± 0.098
70 | AUAAAGCAAUAUUACGAGCG | -0.041 ± 0.086 | 0.101 ± 0.09
71 | AUAAAGCAAUAUUACGCAAU | -0.8 ± 0.074 | -0.703 ± 0.11
72 | AUAAAGCAAUAUUACGCAGG | -1.32 ± 0.098 | -0.913 ± 0.14
73 | AUAAAGCAAUAUUACGCCAA | -0.625 ± 0.15 | -0.34 ± 0.17
74 | AUAAAGCAAUAUUACGCCCC | -0.123 ± 0.16 | 0.0897 ± 0.24
75 | AUAAAGCAAUAUUACGCCCG | -1.01 ± 0.14 | -0.313 ± 0.16

Row | Sequence | self-splicing fitness (ln) (30 °C) | self-splicing fitness (ln) (37 °C)
76 | AUAAAGCAAUAUUACGCGAU | -2.45 ± 0.15 | -1.36 ± 0.16
77 | AUAAAGCAAUAUUACGCGCU | -0.372 ± 0.1 | -0.603 ± 0.12
78 | AUAAAGCAAUAUUACGCUUC | -3.66 ± 0.37 | -2.39 ± 0.32
79 | AUAAAGCAAUAUUACGCUUU | -4.03 ± 0.24 | -1.59 ± 0.23
80 | AUAAAGCAAUAUUACGGAAG | -2.3 ± 0.098 | -0.18 ± 0.11
81 | AUAAAGCAAUAUUACGGAUC | -1.55 ± 0.13 | -0.273 ± 0.15
82 | AUAAAGCAAUAUUACGGUCU | -0.245 ± 0.061 | 0.47 ± 0.088
83 | AUAAAGCAAUAUUACGGUUC | -2.17 ± 0.088 | -0.743 ± 0.1
84 | AUAAAGCAAUAUUACGGUUU | -0.835 ± 0.072 | -0.0425 ± 0.098
85 | AUAAAGCAAUAUUACGUAAG | -2.08 ± 0.1 | -0.84 ± 0.11
86 | AUAAAGCAAUAUUACGUCCA | -0.469 ± 0.098 | 0.194 ± 0.16
87 | AUAAAGCAAUAUUACGUCGC | -2.83 ± 0.25 | -1.41 ± 0.19
88 | AUAAAGCAAUAUUACGUGCA | -0.0876 ± 0.067 | 0.348 ± 0.093
89 | AUAAAGCAAUAUUACGUGCC | -0.00478 ± 0.083 | 0.162 ± 0.12
90 | AUACAGCAAUAUUACGACCA | -0.419 ± 0.15 | -0.298 ± 0.17
91 | AUACAGCAAUAUUACGACGU | -0.374 ± 0.068 | 0.174 ± 0.084
92 | AUACAGCAAUAUUACGAGGG | -3.68 ± 0.2 | -2.21 ± 0.19
93 | AUACAGCAAUAUUACGAGGU | -3.04 ± 0.11 | -1.84 ± 0.11
94 | AUACAGCAAUAUUACGAGUA | -1.76 ± 0.16 | -0.461 ± 0.1
95 | AUACAGCAAUAUUACGAGUG | -2.32 ± 0.073 | -1.34 ± 0.093
96 | AUACAGCAAUAUUACGCAGG | -2.78 ± 0.14 | -0.332 ± 0.11
97 | AUACAGCAAUAUUACGCAGU | -2.88 ± 0.23 | -2.74 ± 0.22
98 | AUACAGCAAUAUUACGCCAG | -1.79 ± 0.14 | -2.03 ± 0.2
